The subject of one data set is HeLa S3 cells. The experiment in a line: Propidium iodide nuclear staining / apoptosis. In kind it is cell-based, human.
Another data set has as its system S2-CP8 cells. Description: Combination therapy assay, S2-CP8 xenograft tumors. The data set is classed as in vivo, mice. Particulars: single agent. On the procedure: Hv1Lt1 antibody or control IgG (280 µg/dose) was intraperitoneally administered twice a week. Gemcitabine (100 µg/dose, once weekly) or nab-PTX (10 mg/kg, twice weekly) was intraperitoneally administered. While lenvatinib (1 mg/kg) or a 0.5% (wt/vol) methylcellulose 400 solution was orally administered once a day, 6 days per week, tumor formation was continued for an additional 21 days, after which the mice were euthanized. The volume and weight of the excised tumors were measured.

Data set [1] addresses T1, human CKAP4 extracellular region (465-602 amino acids) (human, UniProt Q07065 465-602).
T1 construct: also called extracellular region of CKAP4; extracellular domain of CKAP4
T1 sequence: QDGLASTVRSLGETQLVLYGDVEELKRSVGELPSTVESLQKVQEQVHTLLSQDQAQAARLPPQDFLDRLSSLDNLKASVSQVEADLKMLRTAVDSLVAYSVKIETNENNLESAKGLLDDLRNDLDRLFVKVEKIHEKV
Description: SPR (Biacore T200, 25 C), antibody captured on anti-mouse IgG CM5 chip, CKAP4 465-602 as analyte, 1:1 Langmuir fit. On the technique in general: SPR reads the build-up and loss of mass on a sensor chip optically.

For data set [2], the target named is T1, human CKAP4 extracellular region …. The experiment in a line: SPR (Biacore T200, 25 C), antibody captured on anti-human IgG CM5 chip, CKAP4 465-602 as analyte, 1:1 Langmuir fit.
For data set [3], the target named is T2, CKAP4 in lysates of mouse lung cancer cells Lewis Lung Carcinoma (LLC) (mouse, UniProt Q8BMK4 1-575).
T2 construct: also called mouse CKAP4; endogenous CKAP4 (mouse tissues)
T2 sequence (looked up): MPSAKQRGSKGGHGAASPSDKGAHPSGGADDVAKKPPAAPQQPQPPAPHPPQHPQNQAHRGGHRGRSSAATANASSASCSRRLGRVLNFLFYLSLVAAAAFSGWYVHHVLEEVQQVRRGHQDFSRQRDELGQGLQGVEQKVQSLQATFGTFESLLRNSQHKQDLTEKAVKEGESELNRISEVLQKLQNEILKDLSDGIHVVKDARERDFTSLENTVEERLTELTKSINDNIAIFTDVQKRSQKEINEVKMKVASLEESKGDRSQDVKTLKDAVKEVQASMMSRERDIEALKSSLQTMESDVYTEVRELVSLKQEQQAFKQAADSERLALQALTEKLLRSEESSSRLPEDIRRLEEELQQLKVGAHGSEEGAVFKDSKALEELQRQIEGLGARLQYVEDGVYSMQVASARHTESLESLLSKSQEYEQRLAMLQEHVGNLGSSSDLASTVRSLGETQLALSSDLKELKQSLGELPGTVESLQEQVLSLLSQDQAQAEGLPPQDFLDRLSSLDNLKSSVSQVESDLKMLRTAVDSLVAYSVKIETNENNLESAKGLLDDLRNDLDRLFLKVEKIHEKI
Description: blot of LLC cell lysate.

Residue numbers refer to the chain shown, from its start.

Take `CN[C@@H]1C[C@H]2O[C@@](C)([C@@H]1OC)n1c3ccccc3c3c4c(c5c6ccccc6n2c5c31)C(=O)NC4` [staurosporine]: in the data set on HeLa S3 cells, the “nuclear staining with propidium iodide” value is given as “strongly stained”.

`Nc1ccn([C@@H]2O[C@H](CO)[C@@H](O)C2(F)F)c(=O)n1` [gemcitabine]: the “antitumor effects in vivo as single agents” value in the data set on S2-CP8 cells is on record as “antitumor effects”.

B1: Mouse anti-CKAP4 antibody 3F11-2B10 (antibody, V domains shown)
VH: VQLQQQPGTELVKPGASVKLSCKASGFTFTSYWMHWVKQRPGQGLEWIGNINPSNGGTNYNAKFKSKATLTVDKSSSTAYMQLSSLTSEDSAVYYCARWVSFSYRGAMDYWGQGTSVTVSS
VL: DIVLTQSPAILSVTPGDGVSLSCRASRAIRNNLHWFQQKSHESPRLLIKYVSQSISGIPSRFSGSGSGTDFTLSVDSVETEDFGVYFCQQSDSWPYTFGGGTKLEIK
notes: Mouse monoclonal antibody; also called Mouse antibody 3F11-2B10; original mouse anti-CKAP4 antibody
What is called Kd is the free concentration of one partner at which half of the binding sites on the other are occupied at equilibrium, for simple one-to-one binding. A lower Kd goes with tighter binding. What is called koff is a measure of how fast the partners let go of each other. In general, kon refers to the rate constant with which the complex forms. For the molecule B1, in data set [1], the Kd was 14.5 nM, the koff worked out at 0.0018 s⁻¹ and the kon was found to be 125000 M⁻¹ s⁻¹.

B2: Humanized anti-CKAP4 antibody Hv1Lt1 (antibody, human IgG1, V domains shown)
VH: QVQLVQSGAEVKKPGASVKVSCKASGFTFTSYWMHWVRQAPGQGLEWIGNINPSNGGTNYNAKFKSRVTMTRDTSTSTVYMELSSLRSEDTAVYYCARWVSFSYRGAMDYWGQGTLVTVSS
VL: EIVLTQSPDFQSVTPKEKVTITCRASRAIRNNLHWYQQKPDQSPKLLIKYVSQSISGVPSRFSGSGSGTDFTLTINSLEAEDAATYYCQQSDSWPYTFGQGTKLEIK
notes: also called HvlLtl; Humanized antibody Hv1Lt1
B2: in data set [2], the Kd amounted to 0.761 nM, the koff was determined as 1.14e-05 s⁻¹ and the kon was found to be 15000 M⁻¹ s⁻¹.

B3: Humanized anti-CKAP4 antibody Hv2Lt1 (antibody, human IgG1, V domains shown)
VH: B2 VH with F27Y, I48M, N50I, N59S, N61A, A62Q, K65Q, S66G
VL: B2 VL
notes: also called Hv2Ltl; Humanized antibody Hv2Ltl
B3: in data set [3], the binding result is reported as “binds”. In data set [2], this molecule showed a Kd of 0.0449 nM, a koff of 1.7e-06 s⁻¹ and a kon of 37900 M⁻¹ s⁻¹.

The record behind these values is patent EP4800033A1, “HUMANIZED ANTI-CKAP4 ANTIBODY OR ANTIGEN-BINDING FRAGMENT THEREOF” (The University of Osaka, priority 2023, dated 2025).
